According to PMC2836565:

Tests used:
Vts1-A498Q = molecular target: T1, Vts1-A498Q (Saccharomyces cerevisiae, UniProt Q08831 1-523, A498Q); assay: EMSA
T1 sequence: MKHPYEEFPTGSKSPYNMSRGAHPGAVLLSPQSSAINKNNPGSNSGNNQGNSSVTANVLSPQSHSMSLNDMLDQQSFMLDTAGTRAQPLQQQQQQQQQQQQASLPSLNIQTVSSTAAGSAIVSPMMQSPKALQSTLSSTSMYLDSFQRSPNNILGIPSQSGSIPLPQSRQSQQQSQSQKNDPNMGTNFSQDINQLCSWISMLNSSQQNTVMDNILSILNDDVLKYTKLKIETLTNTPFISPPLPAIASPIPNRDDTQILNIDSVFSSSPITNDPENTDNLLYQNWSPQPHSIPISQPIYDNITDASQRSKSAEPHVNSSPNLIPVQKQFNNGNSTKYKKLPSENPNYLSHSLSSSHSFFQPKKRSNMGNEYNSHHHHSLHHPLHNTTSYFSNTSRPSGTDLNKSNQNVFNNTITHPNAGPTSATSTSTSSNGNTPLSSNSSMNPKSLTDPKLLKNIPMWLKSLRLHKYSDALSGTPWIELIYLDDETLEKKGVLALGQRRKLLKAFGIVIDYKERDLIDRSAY

Vts1 [1] = molecular target: T2, Vts1 (Saccharomyces cerevisiae, UniProt Q08831 1-523); assay: EMSA
T2 sequence: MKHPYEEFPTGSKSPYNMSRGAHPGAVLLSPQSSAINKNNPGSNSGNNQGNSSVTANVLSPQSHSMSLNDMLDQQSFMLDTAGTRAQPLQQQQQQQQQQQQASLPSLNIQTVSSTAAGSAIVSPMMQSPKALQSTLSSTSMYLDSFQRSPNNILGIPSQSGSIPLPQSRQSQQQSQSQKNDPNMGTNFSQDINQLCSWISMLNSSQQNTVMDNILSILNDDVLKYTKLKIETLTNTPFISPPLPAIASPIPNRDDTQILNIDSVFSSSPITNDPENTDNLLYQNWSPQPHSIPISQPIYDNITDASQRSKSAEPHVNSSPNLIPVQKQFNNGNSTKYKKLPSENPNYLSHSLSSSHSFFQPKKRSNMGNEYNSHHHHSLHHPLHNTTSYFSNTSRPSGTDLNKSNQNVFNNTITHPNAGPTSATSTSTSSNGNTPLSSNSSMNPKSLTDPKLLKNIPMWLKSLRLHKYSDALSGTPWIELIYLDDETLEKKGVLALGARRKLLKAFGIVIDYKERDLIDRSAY

Vts1 [2] = molecular target: T2, Vts1; assay: competition

Binder	binding result (Vts1-A498Q)	binding result (Vts1 [1])	binding result (Vts1 [2])
GCUCGAGGCUCUGGCAGCCUCGAGC (structured_RNA) [SRE-RNA]	no binding	binds	
dsDNA 50-bp (dsDNA) DNA 1: GAAAACATTATTAATGGCGTCGAGCTAGGCACAAGGCGAACTGCTAACGG DNA 2: CCGTTAGCAGTTCGCCTTGTGCCTAGCTCGACGCCATTAATAATGTTTTC			binds
